Data as given in paper doi:10.1101/2024.09.03.610921 (bioRxiv, 2024).

Biological target: recombinant human histone H3.1 (human, UniProt P68431 1-136)
Assay: pull-down

B1: RAGE^124-341-His-FLAG (extracellular region of RAGE lacking the V domain) (domain or fragment)
chain: PEIVDSASELTAGVPNKVGTCVSEGSYPAGTLSWHLDGKPLVPNEKGVSVKEQTRRHPETGLFTLQSELMVTPARGGDPRPTFSCSFSPGLPRHRALRTAPIQPRVWEPVPLEEVQLVVEPEGGAVAPGGTVTLTCEVPAQPSPQIHWMKDGVPLPLPPSPVLILPEIGPQDQGTYSCVATHSSHGPQESRAVSISIIEPGEEGPTAGSVGGSGLGTL
binding result: binds
